Results taken from the DeepSol protein solubility set.

assay: soluble on expression in E. coli; label from the status in PepcDB or PDB records

| Sequence | soluble on expression in E. coli |
| --- | --- |
| MLKILKRIVQDVTAASDLKEALGILVQRINTAINAEAVSVYLIDNKNAEYVLIATEGLNKQAEFRVRIALDCGLIGLIGRREEPINIENAPSHPDFYHNPLIGEDHLNAFLGVPIIQHRKLYGVLVVQQLEQRYFDDAEESFLITLAAQLGGIIAHAEATGELAELTQ | not soluble |
| MLKISNSVTLQEWEIQLTPIRAQGNGGQNVNKVATAIHLRFDIHHSSLPEFYKERLLALSDSRITKDGVVIIKAQQFRTQEKNKEDALNRLQELIKAAALQDKKRIKTKPTRASQRRRLDSKNKQGAKKQQRKKVLYLEHHHHHH | not soluble |
| MLKKFFLPDEFVKNIFHITPEKLKERNVKGIITDLDNTLVEWDRPNATPRLIEWFEEMKEHGIKVTIVSNNNERRVKLFSEPLGIPFIYKARKPMGKAFNRAVRNMELKKEDCVVIGDQLLTDVLGGNRNGYHTILVVPVASSDGFITRFNRQVERRILSALKRKGHIQWEELEHHHHHH | soluble |
| MLKKRKLGRRIGEIQAGEKLVFQAAIEDKDLLLYLGLTDDANPLYIQHDYASQTPFGKPVVPPVMLTGMITSAVSKYLPGPGSYITRQDLRFLRPVYHYETLEFLLEVADVDEAGHCVTLSVMATRGAETVLDGTLSVCPPHTLPRLDGRVLENF | not soluble |
| MLKLFSAFRKNKIWDFNGGIHPPEMKTQSNGTPLRQVPLAQRFVIPLKQHIGAEGELCVSVGDKVLRGQPLTRGRGKMLPVHAPTSGTVTAIAPHSTAHPSALAELSVIIDADGEDCWIPRDGWADYRTRSREELIERIHQFGVAGLGGAGFPTGVKLQGGGDKIETLIINAAECEPYITADDRLMQDCAAQVVEGIRILAHILQPREILIGIEDNKPQAISMLRAVLADSNDISLRVIPTKYPSGGAKQLTYILTGKQVPHGGRSSDIGVLMQNVGTAYAVKRAVIDGEPITERVVTLTGEAIARPGNVWARLGTPVRHLLNDAGFCPSADQMVIMGGPLMGFTLPWLDVPVVKITNCLLAPSANELGEPQEEQSCIRCSACADACPADLLPQQLYWFSKGQQHDKATTHNIADCIECGACAWVCPSNIPLVQYFRQEKAEIAAIRQEEKRAAEAKARFEARQARLEREKAARLERHKSAAVQPAAKDKDAIAAALARVKEKQAQATQPIVIKAGERPDNSAIIAAREARKAQARAKQAELQQTNDAATVADPRKTAVEAAIARAKARKLEQQQANAEPEQQVDPRKAAVEAAIARAKARKLEQQQANAEPEEQVDPRKAAVEAAIARAKARKLEQQQANAEPEQQVDPRKAAVEAAIARAKARKREQQPANAEPEEQVDPRKAAVEAAIARAKARKLEQQQANAVPEEQVDPRKAAVAAAIARAQAKKAAQQKVVNEDLEHHHHHH | soluble |
| MLKPLGDRVVIELVQAEEKTASGIVLPDTAKEKPQEGKVIAVGTGRVLENGERVALEVAAGDLIIFSKYAGTEVKYEGTDYLILRESDILAVIG | not soluble |
| MLKQSMHSFVLLYPNVLLEGWNVEKVSERYEGEKWGTFWFQVVTPTGMFRVKEFFLDIMEPVFPDSCISQAKGDCFQYKGLVYWKGINYKGKESYVTSIWKTQVEISVDHGYVNQDEMERFLFELQPVNMELGKTILHTSFHLLSFQAKRSEMGEIGRCREWNAPDDVSYVNLLIHEKLNWKLESVGFGNDETQYVYWDEVNKLYALWVCRHKNKAYYPISSWTMNYGPKQIINGLEFYSHPNRGTVVYEDLGNEQIAYVFRGNPCTNFEQVKELFACL | not soluble |
| MLKSEDADYEKAMKDKVGTGPQEYLKQLSDSLVKNQSAASVEVVSGATHSSDAFINYANQLIQAAQKADTTTISINNLAKMEDGTYKLEEQNYAHGYRVVFSMDVKDGKITKSDYNYVDKDGKLKSDDADYEKNMKAKSGTGPKEYIPALNKSLVEKQDVAAVDTVSGATNSSNQFKIYAAQLQNAAQNGNTDTIKVYNLVEAELEHHHHHH | soluble |
| MLKTLAVANYRSINKLVIPLGRLNLVTGANGSGKSNLYRALRLLAETAQGGVVNALAKEGGLESTYWAGPEQISRRMSQGEVPIQGGPRKAARRLQLGFAGEDFGYAISLGLPDSSGHFMLPGHSSPIASRFTLDPWIKRESIWGGPLYRSASALVDRQGPMIRARAGRQWEVLAQHTSSGDSLFDRVGNLSSSPEVLHLREQIRGWRFYDHLRTDSQAPARRPQLGTRTPVLHHDGRDLAAALQTIIEVGDQQALHETISDAFPESRLEIDAVPGGLFGVQFYQEGLLRPLSAAELSDGTLRYLLLVAALLTPRPPTLMVLNEPETSLHPDLLPALARLIIRASQQCQVWVVSHARRLIAALQQDPECNCIVLEKQLGQTGIVGQRMLDEPAWNWPDLEHHHHHH | not soluble |
| MLKYNIRGENIEVTEPIRDYVEKKIDKLERYFTETPDANVHVNLKVYSDKNAKVEVTIPLPNLVLRAEETSGDLYASIDLIVDKLERQIRKHKTKVNRKFRDKGAERDYFAYSDVNGSTPPEENEGDFDLEIVRTKQFSLKPMDSEEAVLQMNLLGHSFYVYTDAETNGTNIVYSRKDGKYGLIETNLEHHHHHH | soluble |
| MLLAYIDEIGSTGAFIHPNHNRFSDSPAFGYGGFIIPEESAREFGSYFAERKKIFFRNEIPNNIDPGRWEKKGSDLLFALAINERPQNLRLLGSLISKLRKLDGHLFYYAEEKPIGTPKATNCGATEFRDREETAMRETLNRIARHADYEDSRVLVMMDQINEKSRIQRLPAMYAHILGRASEHQEMRRIVEPPMHIDSQLSTNIQFADWICSLAKRAIEYQLVEDSRYSWVSTAEALTPARGSFTYESKLRLYHRAIDDLNHSSILRPTRPLFNSKINQTLDEENRRKLEKVRAATIKEANN | not soluble |
| MLLDEKALVTLQKLGLTYYGARVYITLVSLGSSDATELSIESEVPRTKIYNVLKRLEAEKWIAVEHTRPIIYTAKYPKDILKEKRVAFNSEINEVSNQLSEVYDKVIDNEVPKVWLLRGMNNITAKTINMIKRAKRDITLLGALYSENEIEQLKEELSYATKKGLHVRVISRQSIKLNNGELDIIKNLSSVIPQIKIGGPEFSKFVIIDDKELLILFSKVEDNILDIDSTIAIWIPNVSIASYQASIFNGIWNGYCQVDRC | not soluble |
| MLLEISIYCRGGQGGVTAARILAATAMLQGYYSQSMPQFGPERRGAEVRAFLRISDERIRRKCPITYPDVVILFDLKLSFNGNPETVVVNCNGSSFTGHGNVFALDATEITRRYGLVNAGWPILGPAMAGTAAKALDLDPRCLLEAIRLELGDKADRSVKAAEEAYRVVECV | not soluble |
| MLLSVPLLLGLLGLAAADPAIYFKEQFLDGDAWTNRWVESKHKSDFGKFVLSSGKFYGDLEKDKGLQTSQDARFYALSAKFEPFSNKGQTLVVQFTVKHEQNIDCGGGYVKLFPSGLDQKDMHGDSEYNIMFGPDICGPGTKKVHVIFNYKGKNVLINKDIRCKDDEFTHLYTLIVRPDNTYEVKIDNSQVESGSLEDDWDFLPPKKIKDPDAAKPEDWDERAKIDDPTDSKPEDWDKPEHIPDPDAKKPEDWDEEMDGEWEPPVIQNPEYKGEWKPRQIDNPDYKGTWIHPEIDNPEYSPDANIYAYDSFAVLGLDLWQVKSGTIFDNFLITNDEAYAEEFGNETWGVTKAAEKQMKDKQDEEQRLKEEEEDKKRKEEEEAEDKEDDDDRDEDEDEEDEKEEDEEESPGQAKDEL | soluble |
| MLLYKDVISGDELVSDAYDLKEVDDIVYEADCQMVTVKQGGDVDIGANPSAEDAEENAEEGTETVNNLVYSFRLSPTSFDKKSYMSYIKGYMKAIKARLQESNPERVPVFEKNAIGFVKKILANFKDYDFYIGESMDPDAMVVLMNYREDGITPYMIFFKDGLVSEKF | soluble |
| MLMLEREKLARLIKKRSLKVADEPVFKLSSGKLSRYYVDLKQITFDPEGDYLIGKAMYELVKEFNPDACGGLTLGADPIAYAIAFVSLMDSNPIKPFVVRKEPKGHGMKRQIEGLLNPGERVAVLEDVVTTGSSALKAVKACREYGLEVIGVFAVVDREEGGRENIEKEGIPLYSLFKLSELL | soluble |
| MLMPRQTTPPLSLPLVGGGRFDLSAETSTRWTLICFYRGLHCPICATYLKELEKRVADFAERGVACVAVSSDSEERAQAMAEKVGGGTLRFAYDLPLAEARDWGLYISTSRGKTSIGIEEPALFSEPGLFLVTPERTLYYGAVQTMPFVRPHFSELVAALDFAIPNNYPARGEYTGAV | soluble |
| MLNEQIFSNARVVTAEQVFIGTVVVRDGLIAEVQTGRSQLSQAQDLEGDFLLPGLVELHTDNLEKHLSPRPGVDWPSMSAVISHDAQIVAAGITTVFDALSIGDINPKGKRMQQLPAMLQAIADANEAGLTRADHLLHLRCEVSHPDTLNVFRDLVGQPLVQLVSVMEHAPGQRQFALESKYREYYMGKYHMSHEEMDHFIVEQVANSTEYADRYRRAIVELCLARGLSIASHDDATMAHVEESAGFGMNIAEFPTTLEAAQGCRQLGMSVLMGAPNIVRGGSHSGNVAAASLARHGLLDILSSDYYPASLLQAAFMLAEQDNDCELPHAINMVSRTPAIAAGLADRGEIRVGLRADLIQARNHAGLPVIDKVWRQGKRVF | not soluble |
| MLNITEDEIDSISLLNNPLKDPSKRSIIIIDHSRNDRSPILIGLQGFFGTNRSFMNRYFNKVDFISVLEKIAEKAENDGFIIALPDTMTSLYGNQYINSPAVGNYEDFIVSDVLEYLFKRYGKRPVGLFGKSSGGFGAYTLAVRHPDKISGFVDVAGDSGFEYCYLPDFPAAIKYFRRYGVLEWYTYVKSKMNMSPEDMKVVNVLAMSAFYSPDQEAEMGIGLPFDTRTGLLKYDVWDKWRRLDPAFNISNNIDVLKDMAVFMQVGSRDDFHIDIGMEAMHNFLEKNGIVHFFETYDETHFDLDYLYLKSLPLLIELISD | not soluble |
| MLNSWPLAKDLQVLVEIVHSGSFSAAAATLGQTPAFVTKRIQILENTLATTLLNRSARGVALTESGQRCYEHALEILTQYQRLVDDVTQIKTRPEGMIRIGCSFGFGRSHIAPAITELMRNYPELQVHFELFDRQIDLVQDNIDLDIRINDEIPDYYIAHLLTKNKRILCAAPEYLQKYPQPQSLQELSRHDCLVTKERDMTHGIWELGNGQEKKSVKVSGHLSSNSGEIVLQWALEGKGIMLRSEWDVLPFLESGKLVQVLPEYAQSANIWAVYREPLYRSMKLRVCVEFLAAWCQQRLGKPDEGYQVM | soluble |
| MLNVGATAPDFTLRDQNQQLVTLRGYRGAKNVLLVFFPLAFTGICQGELDQLRDHLPEFENDDSAALAISVGPPPTHKIWATQSGFTFPLLSDFWPHGAVSQAYGVFNEQAGIANRGTFVVDRSGIIRFAEMKQPGEVRDQRLWTDALAALTA | soluble |
| MLPAVPPQQWALSAGNGSSEVEVVPFQEVWGRSYCRALERLVDVVSEYPSEVEHMFSPSCVSLLRCTGCCGDENLHCVPVETANVTMQLLKIRSGDRPSYVELTFSQHVRCECRPLREKMKPERCGDAVPRR | soluble |
| MLPEEHLMLRQAVILVGGLGTRLGERTKARPKPMLEIGGRPFLDTLIDELDRYQIFDEILLLAGHKAEIVETHYAGATRGRAKIVVSRETEPLGTGGALVHAAPLLDQHFLLLNGDSLFDFNLLDLIARAQGGRVHMALRDGVVGDRYGRVVLDGDIVRDFIAPGAGATGPVNAGIYVVDKSIIAEIAKLPASLEQDVFPGLVRSGELRGTAYRGYFIDIGIPDDFARADRELREKLQRPAVFFDRDGVLNHDSGYTFETHKLEWIEGAREAVKAVNDAGYFAFVITNQSGVARGYYEEHHVLALHRWMADQMALIGAHIDAFEYCPDHPDGTVARYCRISDRRKPAPGMITDLAQRFSVDMTRSMVVGDKDSDMAAAQAAGLAGHMFEGGNLEAFVKQRLKPADKGLEHHHHHH | not soluble |
| MLPEHLVSSHFRLSSPPPEATENSKNLPKGKTKLSDYEPDILISANAAGQHRNVLFEERDRHIKERLYCVAKIETFARLINALQAEGDIDAQTLSKILADKTAMINEKGNAIWLNLITRETDMPLFYSLEDKDERS | not soluble |
